Data reported in the nanobody polyreactivity screen of Harvey et al. (2022).

Assay: yeast display, Sf9 membrane polyspecificity reagent, FACS + sequencing; frameworks hold sequencing errors
Summary of the method: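 Genes from sorted yeast were amplified by colony PCR, read by MiSeq 2 × 250 sequencing and filtered on CDR length. These cells carried a synthetic nanobody library in Saccharomyces cerevisiae BJ5465 and were sorted by FACS into low and high (top ~1%) gates on anti-HA and streptavidin fluorescence. Polyreactivity is labelled according to the gate of origin.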

Sequence	polyreactivity (PSR sort gate)
QVQHVESLGGLVQAGGSLRLSCAASGIIFGYYAMGWYRQAPGKERELVAAISRRGGSTYYADSVKGRFTISRDNAKNTVYLQMNSLKPEDTAVYYCAAVELRLSTPDMESWGQGTQVTVSS	high polyreactivity
QVQLVESGGGLVQAGGSLRLSCAASGSTVRRYAMGWYRQAPGKERELVATISSGGRTNYADSVKGRFTISRDNAKNTVYLEMNSLKPEDTGVYYCAARPYFYERSAGYYWGQGTQVTVSS	high polyreactivity
QVQIVESGGGLVQARGSIRFRCAASGRIIGTNTMGWYRQAPGKERELVAAITWSGGSTYYADSVKGRFTISRDKEKTTVYLQMYSLKPEDTAVYYCNVESEYAYHWPVDYWGQGTQVSVSS	low polyreactivity
QVQLVESGGGLVQAGGILRLSCAASGSIFYAYAMGWNRQAPGKEAEFVARISGSGGSTYYADSVKGRFTISRDNAKNTVYLQMNSLKPEDTAVYYCAATRERYKYYKRYYWGQGTQVTVSS	low polyreactivity
QVQLVESGGGLVQAGGSLRLSCAASGSILSTNDMGWYRQAPGKERELVAGISSGGSTNYADSVKGRFTISRDNAKNTVYLQMNSQKPEDTAVYYCATDVDKDPAEMDYWGQGTQVTVSS	low polyreactivity
QVQLVESGGGLVQAGGSLRLSCAASGIIFRFYAMGWYRQAPGKERELVARIRSRGGSTYYADSVKGRFTISRDNAKNTVYLQMNSLKPEDTAVYYCAAGAGYPYYWGQGTQVTVSS	high polyreactivity
QVQLVESGGGLVQAGGSLRLSCAASGRTFYPYVMGWYRQAPGKEREMVAAISYTGGSTYYADSVKGRFTISRDNAKNTVYLQMNSLKPEDTAVYYCNRAKYYSGGYRYHVDYWGQGTQVTVSS	high polyreactivity
QVQLVESGGGLVQAGGSLRLSCAASGSTFWDYAMGWYRQSPGKERELVAGITYSGTSTYYADSVKARFTISRDHAKNTVYLQMNSLKPEDTAVYYCAAESQAVGWWTPGYDYWGQGTQVTVSS	low polyreactivity
QVQLVESGGALVQAGGSLRLSCAASGIIFNLYAKGWYRPAPGKEMELVAAITSSGTSTYYADSVKGRFTISRDNAKNTVYLQMNSLSPEDTAVYYCAAERGFYYFVEYDYWGQGTQVTVSS	high polyreactivity
QVQLVESGGVLDQARGSLRLSCAASGRIFGYNAMGWYRQAPGKERELVAAISWGGGRTYYADSVKGRFTISRDNAKNTVYLQMNSLKPEDTAVYYCNALYVGYYDSMGYWGQGTQVTVSS	high polyreactivity
QVQLVESGGGLVQAGGSLRLSCAASGSTFRRYAMGWYRQAPGKERELVAAISSSGDSTYYADSVKGRFTISRDNAKNTVYLQMNSLKPEDTAVYYCATRLRQVYRSQSSGYDYWGQGTQVTVSS	low polyreactivity
QVQHVESGAGLVQAGGSLRLSCAASGSIFEINAMGWYRQAPGKERELVAAITGSGGSTHYADSVKVRFTISRDNAKNTVYLQMNSLKPEDTAVYYCAAVPRYQYGYWGQGNQVTVSS	low polyreactivity
QVQLVESGGGLVQAGGSLRLSCAASGSIFGNYVMGWYRQSPGKERELVAAISWSGGTNYADSVKGRFTISRDNAKNTVYLQMNSLKPEDTAVYYCATVIRGHKRFAYGYWGQGTQVTVSS	high polyreactivity
QVQLVESGGGLVQAGGSLRLSCAASVFTFTVNTMGWYRQAPGKERELVAANSNTGSTKYADSVKGRFTISRDKAKNTLYLQMNSLKPEDTAVFYCAAEPGYYSRPDYRVYRVYYWGQGTQVTVSS	high polyreactivity
QVQLVESGGGLVHAGGSLRLSCAASGSIIDRNAMGWYRQAPGKERELVASITRGGSTNYADSVKGRFTISRDNEKNTVYLQMNSLKPEDTAVYYCADDRVYLGMFRYEYWGQGTQVTVSS	high polyreactivity
QVQLVESGGGLVQAGGSLRLSCAASGIIFKRNAMGWYRQAPGKERELVAAITYRGTSTYYADSVKGRFTISRDNAKNTVYLQMNSLKPEDTAVYYCNAVGRSSGSAFNYWGQGTQVTVSS	high polyreactivity
QVQLVESGGGLVQAGGSLRLSCAASGRIFTNYAMGWYRQAPGKERELVATINGGGITNYADSVKVRFTISRDNAKNTVYLQMNSLKPEDNAVYYCATDRLSYGYKPGYTFYYWEQGTQVTVSS	high polyreactivity
QVQLVESGGGLVQAGGSLRLSCAASGTTFILNAMGWYRQAPGKDRELVATISSSDTSTYYADSVKGRFTISRDNAKNTVYLQMNSLKPEDTAVYYCNADYYTTSYLQRVFHYGVEYDYWGQGTQVTVSS	low polyreactivity
QLQLVESGGGLVQAGGSLRLSCAPSGSIFLNYAMGWYRQAPGKERELVATIRRRGGSTYSADSVKGRFTISRDNAKNTVYLQMNSLKPDDTAVYYCNAEQLVSRARPYDYWGQGTLVTVSS	high polyreactivity
QVQLVESGGGLVQAGGSLRLSCAASGRTFGINAMGWYRQAPGKERELVAVISFADGGTYYADSVKGRFTISRDNAKNTVYLQMNSLKPEDTAVYYCATDYQSTSVWGGHFVINPYDYWGLGTQVTVSS	low polyreactivity
QVQLVESGGGLVQAGGSLRLSCAASGSIFGAYTMGWYRQAPGKEREFVAVISKGGTNTYYADSVKGRFTISRDNAKNTVYLQMNSLKPEDTAVYYCAARAYPTWRTYYYWGQGTQVTVSS	high polyreactivity
QVQLVESGGGIVQAGGSLRLSCAASGSTIGGYAMGWYRQAPGKERELVAAIRRSGDSTYYADSVKGRFTISRDNAKNTVYLQMNSLKPEDTAVYYCNTDRTHSYQYGGYDYWGQGTQVTVSS	low polyreactivity

Sequence	polyreactivity (PSR sort gate)
QVQLVESGGGLVQAGGSLRLSCAASGRIFGGYAMGWYRQAPGKEREFVAAITTSGGSTYYADSVKGRFTISRDNAKNTVYFQMNSLKPEDTAVYYCAARGYIPARFVSLVYRYYYWGQGTQVTVSS	high polyreactivity
QVQLVESGGGLVQAGGSLRLSCAASGGTFTFYAMGWYRQAPGKERELVATINWSGGSTYYADSVKGRFTNSRDNAKNTVYLQMNSLKPEDTAVYYCNAAWAYKSVEYWGQGTQVTVSS	low polyreactivity
QVQLVESGGGLVQAGGSLRLSCAASGSIFGWYAMGWYRQAPGKDWELVAASRRGGSTNYADSVKGRFTISRDNAKNTVYFQMNSLIPEATAVYYCAAGKSGYSKRIFRYSFDYWGQGTQVTVSS	high polyreactivity
QVQLQESGGGVQAGGSLRLSCAASGSISAPILMGWYRQAPGKERELVAGIGGGANTYYADSVKGRFTVSRDNAKYTVYLQMNSLKPEDTAVYYCAAGDYYWTNFGYWGQGTQVTASS	high polyreactivity
QVQLVESGGGLVQAGGSLRLSCAASGSTLIRNVMGWYRQAPGKESELDAAITWSGASTYYADSVKGRFTISRDNAKNTVYLQMNSLKPEDTAVYYCAARALNWSRVARYNYWGQGTQVTVSS	high polyreactivity
QVQLVESGGGLVQAGGSLRLSCAASGGTFSSNDMGWYRQAPGKERELVAAISWSGSSTDYADSVKGRFTISRDNAKNTVYLQMNSLKPDDTAVYYCNTDYWEITYSGVIWPEYDYWGQCTQVTVSS	low polyreactivity
QVQLVESGGGIVQAGGSLRLSCAASGRIIRYYAMGWYRQAPGKERELVAAITRGGSTNYADSVKGRFTISRDNAKNTVYLLMNSLKPEDTAVYYCATRQSWYPRWMDYWGQGTQVTVSS	high polyreactivity
QVQLVESGGGLVQAGGSLRLSCAASGFIFLYNAMGWDRQARGKERELVAAITSSGGTTYYADSVKGRFTISRDNAKNTVYLQINSLKPEDTAVYYCAARYTGRNGGSTTPEYDYWGQGTQVTVSS	low polyreactivity
QVQLVESGGGLVQAGGSLRLSCAASGSNFAGYAMGWYRPAPGKERALGAAISWSGGSTYYADSVKGRFTISRDNAKNTVYLQINSLKPEDTAVYYCNALRYGWKYNYWGQGTQVTVSS	high polyreactivity
QVQLVESGGGLVQAGGSLRLSCAASGRIFVAYTMGWYRQAPGKERELVAAISTNGGRTYYADSVKGRFTISRDNAKNTVYLQMNSLKPEDTAVYYCAAYRGPRADYYWGQGTQVTVSS	high polyreactivity
QVQLVESGGGLVQAGGSLRLSCAASGSIFPQYAMGWYRQAPGKERELVAVISWSGGRTYYADSVKGRFTISRDNAKNTVYLQMNSLKPEDTAVYYCAAKYWYQRYPQSSYTRYYWGQGTQVTVSS	high polyreactivity
QVQLVESGGGLVQAGGSLRLIFAASGSIFNRYTMGWYRQAPGKERELVADISKSGTRTYYADSVKGRFTISRDNAKNTVYLQMNSLKPEDTAVYYCAKSSVAVYQTRYDYWGQGTQVTVSS	high polyreactivity
QVQLVESGGGLVQAGGSLRLSCAASGRTFPGNAMGWYRQAPGKERELVAAISSRGGSTYYADSVKGRFTISRDNAKNTVYLQMNSLKPEDTAVYYCARRYLPYGGYYYWGQGTQVTVSS	high polyreactivity
QVQLVESGGGLVQAGGSLRLSCAASGSTFRIYAMGWYRQAPGKDRELVAGITRRGGSTFYADSVKGRFTISRDNANNTVYLQMNSLKPEDTAVYYCAARFRGGMDYWGQGTQVTVSS	high polyreactivity
QVQLVESGGGLVQAGGSHRLSCAASGSIFFSNARGWYRQAPGNERELFAAITWTGGSTYYADSVKGRFTISRDNAKNTVYLQMNSLKPEDTAVYYCNAAHQRDWYYAIYHLYYSPYYYWGQGSQVTVSS	low polyreactivity
QVQLEESGGGLVQAGRSLRLSCAASGRIFTYYSMGWYRQAPWKERELVAAISRSGRTYYADSVKGRFTISRDNAKNTVYLQMNILIPEDTAVYYCAAEYYYSWFEYWGQGTQVTVSS	high polyreactivity
QVQLVESGGGLVQAGGSLRLSCAASGFIFRDYDMGWYRQAPGKERELVPAISWRGGTYYADSVKGRFTISRDNAKNTVYLQMNSLKPEDTAVYYCNATRYRLRPSGVRYKYNYWGQGTQVTVSS	low polyreactivity
QVQLVESGGGLVQAGGSLRLSCAASGSIFDYYAMGWYRQAPGKERELVAAISESSDSTYYADSVKGRFTISRDNAKNTVYLQMNSLKPEDTAVYYCAAYRGTLLTAYDYWGQGTQVTVSS	low polyreactivity
QVQLVESGGGLVQAGGSLRLSCAASGFIFRRYALGWYRQAPGKERELVAAISWGGTSTYYADSVKGRFTISRDNAKNTVYLQMNSLKPVDTAGYYCAADRSVRTRGGFDYWGQGTQVTVSS	high polyreactivity
QVQLVESGGGFDQAGGSLRLSCAASGSIFSGYAMGWYRQAPGKETELVAAINWSGGRTYYADSVKGRFTISRDNEKNTVYLQMKSLKPEDTAVYYCAAAGARSIYRMDYWGQGTQVTVSS	high polyreactivity
QVQLVESGGGLVQAGGSLRLSCAASGSIFLYYTMGWYRQAPGKERELVAAITWGGGTTYYADSVKGRFTISRDNAKNTVYLQMNSLKPEDTAVYYCAAEGSYPRMDYWGQGTQVTVSS	low polyreactivity
